Laboratory results taken from patent publication US20060058231A1 (Xencor, published 2006).

T1: BMPRII receptor-Fc fusion (UniProt Q13873 27-151, limits assumed)
T1 construct: BMP receptor-Fc fusion used at 5 ug/mL
T1 sequence (looked up): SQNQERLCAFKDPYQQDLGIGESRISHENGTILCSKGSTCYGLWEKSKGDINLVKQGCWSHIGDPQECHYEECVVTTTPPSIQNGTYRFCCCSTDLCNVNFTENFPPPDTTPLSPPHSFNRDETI

T2: BMPRIb receptor-Fc fusion (UniProt O00238 14-126)
T2 construct: BMP receptor-Fc fusion used at 5 ug/mL; also called ALK-6
T2 sequence (looked up): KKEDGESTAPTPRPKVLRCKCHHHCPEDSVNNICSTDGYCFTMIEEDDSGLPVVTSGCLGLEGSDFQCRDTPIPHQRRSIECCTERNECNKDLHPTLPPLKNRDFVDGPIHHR


Assays:
Assay in all cases: ELISA-like plate assay, captured BMP-7 from conditioned media, receptor-Fc detection
[1] = target: T1, BMPRII receptor-Fc fusion
[2] = target: T3, ActRIIa receptor-Fc fusion (UniProt P27037 20-134, limits assumed)
T3 construct: BMP receptor-Fc fusion used at 5 ug/mL
T3 sequence (P27037 20-134 limits assumed): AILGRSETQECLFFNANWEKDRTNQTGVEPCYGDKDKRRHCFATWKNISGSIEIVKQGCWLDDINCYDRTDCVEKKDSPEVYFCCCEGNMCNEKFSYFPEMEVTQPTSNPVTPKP

[3] = target: T2, BMPRIb receptor-Fc fusion
[4] = target: T4, BMPRIa receptor-Fc fusion (UniProt P36894 24-152, limits assumed)
T4 construct: also called ALK-3
T4 sequence (P36894 24-152 limits assumed): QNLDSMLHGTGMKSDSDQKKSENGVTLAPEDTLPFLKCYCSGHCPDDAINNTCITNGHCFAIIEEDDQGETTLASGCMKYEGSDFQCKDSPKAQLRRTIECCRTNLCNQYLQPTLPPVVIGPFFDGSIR

Row | Binder | BMPRII binding (relative to wild type = 1.0) [1] | ActRIIa binding (relative to wild type = 1.0) [2] | BMPRIb binding (relative to wild type = 1.0) [3] | BMPRIa binding (relative to wild type = 1.0) [4]
1 | BMP-7 variant M23N (ligand, In conditioned media; numbering on mature BMP-7) STGGKQRSQNRSKTPKNQEALRNASVAENSSSDQRQACKKHELYVSFRDLGWQDWIIAPEGYAAYYCEGECAFPLNSYMNATNHAIVQTLVHFINPETVPKPCCAPTQLNAISVLYFDDSSNVILKKYRNMVVRACGCH | 0.9 relative to wild type | 0.94 relative to wild type | 1.36 relative to wild type | 0.98 relative to wild type
2 | BMP-7 variant M23S (ligand, In conditioned media; numbering on mature BMP-7) STGGKQRSQNRSKTPKNQEALRSASVAENSSSDQRQACKKHELYVSFRDLGWQDWIIAPEGYAAYYCEGECAFPLNSYMNATNHAIVQTLVHFINPETVPKPCCAPTQLNAISVLYFDDSSNVILKKYRNMVVRACGCH | 2.41 relative to wild type | 2.2 relative to wild type | 1.09 relative to wild type | 0.88 relative to wild type
3 | BMP-7 variant N76A (ligand, In conditioned media; numbering on mature BMP-7) STGGKQRSQNRSKTPKNQEALRMASVAENSSSDQRQACKKHELYVSFRDLGWQDWIIAPEGYAAYYCEGECAFPLASYMNATNHAIVQTLVHFINPETVPKPCCAPTQLNAISVLYFDDSSNVILKKYRNMVVRACGCH | 0.95 relative to wild type | 0.96 relative to wild type | 0.81 relative to wild type | 0.79 relative to wild type
4 | BMP-7 variant N76D (ligand, In conditioned media; numbering on mature BMP-7) STGGKQRSQNRSKTPKNQEALRMASVAENSSSDQRQACKKHELYVSFRDLGWQDWIIAPEGYAAYYCEGECAFPLDSYMNATNHAIVQTLVHFINPETVPKPCCAPTQLNAISVLYFDDSSNVILKKYRNMVVRACGCH | 0.87 relative to wild type | 1.13 relative to wild type | 0.8 relative to wild type | 0.84 relative to wild type
5 | BMP-7 variant N76S (ligand, In conditioned media; numbering on mature BMP-7) STGGKQRSQNRSKTPKNQEALRMASVAENSSSDQRQACKKHELYVSFRDLGWQDWIIAPEGYAAYYCEGECAFPLSSYMNATNHAIVQTLVHFINPETVPKPCCAPTQLNAISVLYFDDSSNVILKKYRNMVVRACGCH | 0.98 relative to wild type | 0.99 relative to wild type | 0.85 relative to wild type | 0.76 relative to wild type
6 | BMP-7 variant N76T (ligand, In conditioned media; numbering on mature BMP-7) STGGKQRSQNRSKTPKNQEALRMASVAENSSSDQRQACKKHELYVSFRDLGWQDWIIAPEGYAAYYCEGECAFPLTSYMNATNHAIVQTLVHFINPETVPKPCCAPTQLNAISVLYFDDSSNVILKKYRNMVVRACGCH | 0.97 relative to wild type | 1.11 relative to wild type | 0.98 relative to wild type | 0.94 relative to wild type
7 | BMP-7 variant N76Y (ligand, In conditioned media; numbering on mature BMP-7) STGGKQRSQNRSKTPKNQEALRMASVAENSSSDQRQACKKHELYVSFRDLGWQDWIIAPEGYAAYYCEGECAFPLYSYMNATNHAIVQTLVHFINPETVPKPCCAPTQLNAISVLYFDDSSNVILKKYRNMVVRACGCH | 0.6 relative to wild type | 0.92 relative to wild type | 0.46 relative to wild type | 0.46 relative to wild type
8 | BMP-7 variant Q53D (ligand, In conditioned media; numbering on mature BMP-7) STGGKQRSQNRSKTPKNQEALRMASVAENSSSDQRQACKKHELYVSFRDLGWDDWIIAPEGYAAYYCEGECAFPLNSYMNATNHAIVQTLVHFINPETVPKPCCAPTQLNAISVLYFDDSSNVILKKYRNMVVRACGCH | 1.01 relative to wild type | 0.89 relative to wild type | 3.74 relative to wild type | 2.2 relative to wild type
9 | BMP-7 variant Q53E (ligand, In conditioned media; numbering on mature BMP-7) STGGKQRSQNRSKTPKNQEALRMASVAENSSSDQRQACKKHELYVSFRDLGWEDWIIAPEGYAAYYCEGECAFPLNSYMNATNHAIVQTLVHFINPETVPKPCCAPTQLNAISVLYFDDSSNVILKKYRNMVVRACGCH | 0.72 relative to wild type | 0.98 relative to wild type | 2.78 relative to wild type | 2.3 relative to wild type
10 | BMP-7 variant Q53G (ligand, In conditioned media; numbering on mature BMP-7) STGGKQRSQNRSKTPKNQEALRMASVAENSSSDQRQACKKHELYVSFRDLGWGDWIIAPEGYAAYYCEGECAFPLNSYMNATNHAIVQTLVHFINPETVPKPCCAPTQLNAISVLYFDDSSNVILKKYRNMVVRACGCH | 1.37 relative to wild type | 0.99 relative to wild type | 3.95 relative to wild type | 3.7 relative to wild type
11 | BMP-7 variant Q53K (ligand, In conditioned media; numbering on mature BMP-7) STGGKQRSQNRSKTPKNQEALRMASVAENSSSDQRQACKKHELYVSFRDLGWKDWIIAPEGYAAYYCEGECAFPLNSYMNATNHAIVQTLVHFINPETVPKPCCAPTQLNAISVLYFDDSSNVILKKYRNMVVRACGCH | 0.14 relative to wild type | 0.73 relative to wild type | 2.03 relative to wild type | 0.7 relative to wild type
12 | BMP-7 variant Q53R (ligand, In conditioned media; numbering on mature BMP-7) STGGKQRSQNRSKTPKNQEALRMASVAENSSSDQRQACKKHELYVSFRDLGWRDWIIAPEGYAAYYCEGECAFPLNSYMNATNHAIVQTLVHFINPETVPKPCCAPTQLNAISVLYFDDSSNVILKKYRNMVVRACGCH | 0.96 relative to wild type | 0.81 relative to wild type | 1.41 relative to wild type | 1.26 relative to wild type
13 | BMP-7 variant Q53S (ligand, In conditioned media; numbering on mature BMP-7) STGGKQRSQNRSKTPKNQEALRMASVAENSSSDQRQACKKHELYVSFRDLGWSDWIIAPEGYAAYYCEGECAFPLNSYMNATNHAIVQTLVHFINPETVPKPCCAPTQLNAISVLYFDDSSNVILKKYRNMVVRACGCH | 1.26 relative to wild type | 1.04 relative to wild type | 0.68 relative to wild type | 0.66 relative to wild type
14 | BMP-7 variant R48H (ligand, In conditioned media; numbering on mature BMP-7) STGGKQRSQNRSKTPKNQEALRMASVAENSSSDQRQACKKHELYVSFHDLGWQDWIIAPEGYAAYYCEGECAFPLNSYMNATNHAIVQTLVHFINPETVPKPCCAPTQLNAISVLYFDDSSNVILKKYRNMVVRACGCH | 0.58 relative to wild type | 1.02 relative to wild type | 3.58 relative to wild type | 3.15 relative to wild type
15 | BMP-7 variant R48N (ligand, In conditioned media; numbering on mature BMP-7) STGGKQRSQNRSKTPKNQEALRMASVAENSSSDQRQACKKHELYVSFNDLGWQDWIIAPEGYAAYYCEGECAFPLNSYMNATNHAIVQTLVHFINPETVPKPCCAPTQLNAISVLYFDDSSNVILKKYRNMVVRACGCH | 0.13 relative to wild type | 0.93 relative to wild type | 0.43 relative to wild type | 1.87 relative to wild type
16 | BMP-7 variant R48Q (ligand, In conditioned media; numbering on mature BMP-7) STGGKQRSQNRSKTPKNQEALRMASVAENSSSDQRQACKKHELYVSFQDLGWQDWIIAPEGYAAYYCEGECAFPLNSYMNATNHAIVQTLVHFINPETVPKPCCAPTQLNAISVLYFDDSSNVILKKYRNMVVRACGCH | 0.15 relative to wild type | 0.8 relative to wild type | 0.85 relative to wild type | 1.06 relative to wild type
